Measurements: patent US20230272099A1 (Chugai, published 2023)
Changes are numbered by the printed parent chain.

T1: human FcgRIIa type H extracellular domain (human, UniProt P12318 34-217)
T1 construct: extracellular domain; also called hFcgRIIaH
T1 sequence (looked up): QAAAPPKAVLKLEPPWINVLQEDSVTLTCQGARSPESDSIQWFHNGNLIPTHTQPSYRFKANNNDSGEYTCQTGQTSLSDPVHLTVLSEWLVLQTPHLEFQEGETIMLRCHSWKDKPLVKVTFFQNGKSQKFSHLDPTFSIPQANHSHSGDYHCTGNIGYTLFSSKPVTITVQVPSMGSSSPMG

T2: human FcgRIIb extracellular domain (human, UniProt P31994 43-217)
T2 construct: extracellular domain; also called hFcgRIIb
T2 sequence (looked up): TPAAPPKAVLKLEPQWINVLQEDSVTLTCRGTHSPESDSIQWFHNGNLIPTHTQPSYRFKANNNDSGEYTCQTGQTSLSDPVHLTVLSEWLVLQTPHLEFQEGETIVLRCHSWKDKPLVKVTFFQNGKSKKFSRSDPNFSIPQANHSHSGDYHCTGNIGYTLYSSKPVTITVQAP

T3: human FcgRIIa type R extracellular domain (human, UniProt P12318 34-217)
T3 construct: extracellular domain; also called hFcgRIIaR
T3 sequence (looked up): T1 sequence (looked up) with H134R

B1: dBBAT053-P253 (antibody, human IgG1, lambda, V domains shown)
VH: EVQLVESGGDLVKPGGGLRLSCAASGFTFSTFTMNWVRQAPGKGLEWVSSISSRSNYIYYADSVKGRFTISRDNAKNSLYLQMNSLRAEDTAVYYCARFGLKNEMNWVFDYWGQGTLVTVSS
VL: QSALTQPPSASGSPGQTVTISCTGTSSDVGFYNYVSWYQQHPGKAPKLMIYEGSKKPSGVPDRFSGSKSGNTASLTVSGLQAEDEADYFCSVYSYIYYVLFGGGTKLTVLG
B2: dBBAT007-P253 (antibody, human IgG1, lambda, V domains shown)
VH: B1 VH with T31G, F32Y, I58A, Y59H, E104F
VL: B1 VL with E52G, G53T, K56R, V92S, S94A, I96D, Y97A, Y98Q, V99L, L100V
B3: dBBAT015-P253 (antibody, human IgG1, lambda, V domains shown)
VH: B1 VH with F32Y, N56T, I58A, Y59T, F99Y, E104S, M105L
VL: B1 VL with S27T, G53V, V92T, I96D, Y97E, Y98S, L100A
B4: dBBAT134-P253 (antibody, human IgG1, lambda, V domains shown)
VH: B1 VH with T31S, F32Y, I58A, Y59D, F99Y, L101A
VL: B1 VL with S27T, G53V, K56R, V92S, S94T, I96D, Y97Q, Y98Q, V99L, L100M
B5: A375-SCF060a/B167-Lamlib (antibody, human IgG1, lambda)
heavy: EVQLVESGGGLVKPGGSLRLSCAASGFTFSTFTMNWVRQAPGKGLEWVSSISSKSTYIEYADSFKVRFTISRDNAKNSLYLQMNSLRAEDTAVYYCARYGAKNFLNWVFDYWGQGTLVTVSSASTKGPSVFPLAPSSKSTSGGTAALGCLVKDYFPEPVTVSWNSGALTSGVHTFPAVLQSSGLYSLSSVVTVPSSSLGTQTYICNVNHKPSNTKVDKRVEPKSCDKTHTCPPCPAPELWNGPSVFLFPPKPKDTLMISRTPEVTCVVVDVSDEDPEVKFNWYVDGVEVHNAKTKPREELYNSTYRVVSVLTVLHRDWLNGKEYKCKVSNTALPKPIEKTISKAKGQPREPQVYTLPPSREEMTKNQVSLTCLVKGFYPSDIAVEWESNGQPENNYKTTPPVLDSDGSFFLYSKLTVDKSRWQQGNVFSCSVMHEALHNHYTQKSLSLSP
light: QSALTQPPSASGSPGQTVTISCTGTRYDVGYYEYVSWYQQHPGKAPKLMIYETSKRLSGVPDRFSGSKSGNTASLTVSGLQAEDEADYYCSSYRYEHQVSFGGGTKLTVLGQPKAAPSVTLFPPSSEELQANKATLVCLISDFYPGAVTVAWKADSSPVKAGVETTTPSKQSNNKYAASSYLSLTPEQWKSHRSYSCQVTHEGSTVEKTVAPTECS
notes: copies: 2 + 2
B6: A375-TT14/B167-Lamlib (antibody, human IgG1, lambda)
heavy: EVQLVESGGGLVKPGGSLRLSCAASGFTFSTFTMNWVRQAPGKGLEWVSSISSKSTYIEYADSFKVRFTISRDNAKNSLYLQMNSLRAEDTAVYYCARYGAKNFLNWVFDYWGQGTLVTVSSASTKGPSVFPLAPSSKSTSGGTAALGCLVKDYFPEPVTVSWNSGALTSGVHTFPAVLQSSGLYSLSSVVTVPSSSLGTQTYICNVNHKPSNTKVDKKVEPKSCDKTHTCPPCPAPEYLGGDSVFLFPPKPKDVLMISRTPEVTCVVIDVSHEDPEVKFNWYVDGVEVHNAKTKPREEQYNSTYRVVSVLPVLHQDWLNGKEYKCKVSNKALPKPIEKTISKAKGQPREPQVYTLPPSREEMTKNQVSLTCLVKGFYPSDIAVEWESNGQPENNYKTTPPVLDSDGSFFLYSKLTVDKSRWQQGNVFSCSVMHEALHNHYTQKSLSLSP
light: B5 light
notes: copies: 2 + 2
B7: A375-TT16/B167-Lamlib (antibody, human IgG1, lambda)
heavy: B6 heavy with G242D, I269V
light: B5 light
notes: copies: 2 + 2

molecular target: T4, biotinylated Fc-fused monkey CD137 (monkey, biotin on the AviTag); assay: ELISA, 1 mM ADP, 0.039 ug/mL; set-up: reference not given here
T4 construct: also called cyCD137-Fc-BAP
T4 sequence (chain, as listed by the source limits assumed): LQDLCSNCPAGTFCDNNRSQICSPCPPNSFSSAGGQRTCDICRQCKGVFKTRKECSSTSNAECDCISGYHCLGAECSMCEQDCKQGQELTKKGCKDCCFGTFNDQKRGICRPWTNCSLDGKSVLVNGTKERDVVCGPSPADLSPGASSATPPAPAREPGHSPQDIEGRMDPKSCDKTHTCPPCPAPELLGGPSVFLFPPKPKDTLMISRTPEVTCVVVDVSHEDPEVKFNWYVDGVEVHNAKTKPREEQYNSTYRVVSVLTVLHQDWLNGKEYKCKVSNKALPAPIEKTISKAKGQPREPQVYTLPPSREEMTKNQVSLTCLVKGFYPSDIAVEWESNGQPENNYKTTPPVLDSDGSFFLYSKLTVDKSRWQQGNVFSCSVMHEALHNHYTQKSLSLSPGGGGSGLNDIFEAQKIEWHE
Protocol: (§1) The obtained antibodies were evaluated for binding to monkey CD137 by ELISA. The cyCD137-Fc-BAP prepared in Reference Example 1 was immobilized on Streptawell microtiter plates. After the unbound antigen was removed from the plates by washing each well of the plates with the wash buffer, the wells were blocked with 150 μL of a blocking buffer (TBS with 2% BSA) for 1 hour or more. The blocking buffer was removed from each well, and 100 μL of the purified antibodies diluted in TBS with a final concentration of 1 mM ADP, or TBS with a final concentration 1 mM ADP was added to each well. The plate to which the antibody was added was shaken at 600 rpm for 1 hour. The AP-conjugated anti-human lambda antibodies (BETHYL) diluted in TBS with a final concentration of 1 mM ADP were added to each well after washing with a wash buffer (TBS with 0.1% Tween20) containing a final concentration of 1 mM ADP. After incubation for one hour and washing with a wash buffer containing a final concentration of 1 mM […], BluePhos phosphate substrate (KPL) was added. Color development was measured by absorbance at 600 nm. Samples with a concentration-dependent increase in the absorbance ratio can be said to be bound to monkey CD137.

absorbance ratio	Binder
0.7	B1
0.7	B2
1.5	B3
1.2	B4

molecular target: T4, biotinylated Fc-fused monkey CD137; assay: ELISA, 1 mM ADP, 2.5 ug/mL; set-up: reference not given here
Protocol: as §1

absorbance ratio	Binder
6.9	B1
30.2	B2
32.4	B3
16.8	B4

molecular target: T4, biotinylated Fc-fused monkey CD137; assay: ELISA, 1 mM ADP, 0.625 ug/mL; set-up: reference not given here
Protocol: as §1

absorbance ratio	Binder
2.3	B1
29.2	B2
14.4	B3
5.8	B4

molecular target: T5, human FcgRIIIa V158 extracellular domain (human, UniProt P08637 17-208); assay: SPR 25C
T5 construct: extracellular domain; also called hFcgRIIIaV
T5 sequence (P08637 17-208 F176V): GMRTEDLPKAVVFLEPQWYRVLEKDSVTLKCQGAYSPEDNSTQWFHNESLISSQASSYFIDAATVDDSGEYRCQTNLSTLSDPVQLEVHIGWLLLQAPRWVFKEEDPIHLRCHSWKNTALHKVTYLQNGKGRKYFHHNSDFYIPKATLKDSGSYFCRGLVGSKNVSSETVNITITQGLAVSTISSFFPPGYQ

binding per 1RU antibody	relative binding (A375-G1T3/B167-Lamlib=1)	Binder
0.0008 RU	0.01	B5
0.0003 RU	0	B6
-0.0002 RU	0	B7

molecular target: T1, human FcgRIIa type H extracellular …; assay: SPR 25C

binding per 1RU antibody	relative binding (A375-G1T3/B167-Lamlib=1)	Binder
0.0463 RU	0.82	B5
0.0042 RU	0.07	B6
0.0126 RU	0.22	B7

molecular target: T6, human FcgRIa extracellular domain (human, UniProt P12314 16-292); assay: SPR 25C
T6 construct: extracellular domain; also called hFcgRIa
T6 sequence (P12314 16-292): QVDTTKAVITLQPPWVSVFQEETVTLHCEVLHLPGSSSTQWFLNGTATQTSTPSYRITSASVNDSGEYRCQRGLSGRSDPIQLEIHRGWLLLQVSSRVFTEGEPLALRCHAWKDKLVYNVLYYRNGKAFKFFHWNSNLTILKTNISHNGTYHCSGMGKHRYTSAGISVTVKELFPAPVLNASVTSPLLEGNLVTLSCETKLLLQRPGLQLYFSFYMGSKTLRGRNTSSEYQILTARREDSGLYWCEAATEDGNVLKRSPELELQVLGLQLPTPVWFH

binding per 1RU antibody	relative binding (A375-G1T3/B167-Lamlib=1)	Binder
0.0021 RU	0.03	B5
0.0045 RU	0.05	B6
0.0034 RU	0.04	B7

molecular target: T2, human FcgRIIb extracellular domain; assay: SPR 25C

binding per 1RU antibody	relative binding (A375-G1T3/B167-Lamlib=1)	Binder
0.0472 RU	4.31	B5
0.0805 RU	7.34	B6
0.109 RU	9.94	B7

molecular target: T3, human FcgRIIa type R extracellular …; assay: SPR 25C

binding per 1RU antibody	relative binding (A375-G1T3/B167-Lamlib=1)	Binder
0.0459 RU	0.99	B5
0.0067 RU	0.14	B6
0.0359 RU	0.77	B7

molecular target: T7, human FcgRIIIa F158 extracellular domain (human, UniProt P08637 17-208); assay: SPR 25C
T7 construct: extracellular domain; also called hFcgRIIIaF
T7 sequence (P08637 17-208): as the sequence (P08637 17-208 F176V) above, with V160F counted along it

binding per 1RU antibody	relative binding (A375-G1T3/B167-Lamlib=1)	Binder
0.0011 RU	0.05	B5
0 RU	0	B6
0.0001 RU	0	B7

molecular target: T4, biotinylated Fc-fused monkey CD137; assay: ELISA, 1 mM ADP, 0.010 ug/mL; set-up: reference not given here
Protocol: as §1

absorbance ratio	Binder
0.8	B1
3.8	B2
1.1	B3
1	B4

molecular target: T4, biotinylated Fc-fused monkey CD137; assay: ELISA, 1 mM ADP, 10 ug/mL; set-up: reference not given here
Protocol: as §1

absorbance ratio	Binder
17.9	B1
30.5	B2
42.9	B3
33.9	B4

molecular target: human FcRn (human, UniProt P55899 24-290; P61769 21-119); assay: SPR 25C pH 6.0, steady state
Summary of the method: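 Antibody (~400 RU) captured on anti-Fab-lambda sensor chip, human FcRn injected as analyte.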

Kd	Binder
1.01 µM	B5
1.77 µM	B6
1.51 µM	B7

molecular target: T4, biotinylated Fc-fused monkey CD137; assay: ELISA, 1 mM ADP, 0.156 ug/mL; set-up: reference not given here
Protocol: as §1

absorbance ratio	Binder
1	B1
22	B2
3.6	B3
2.2	B4
